Experiments:
[1] = target: T1, Truncated sigma^70 (C-terminal 99 amino acids) (Escherichia coli, UniProt P00579); assay: Competitive ELISA for quantification of AsiA-sigma^70 interaction (GST-AsiA binding to immobilised truncated sigma^70); design: species or system E. coli
T1 construct: made in house; GST-AsiA from E. coli DH5alpha / pARC 8105
Procedure: A solution of the protein product (200 pmoles/ml) in a pH 7.5 buffer comprising Tris HCl (10 mM) and sodium chloride (50 mM) was prepared and 200 µl of solution were added per well of a nickel-coated microtitre plate, followed by incubation at room temperature for a period of two hours. The microtitre plate was then washed 5 times with the buffer solution and then incubated at 37°C for one hour with a solution of bovine serum albumin (3% w/v) in the above buffer. After washing 5 times with phosphate buffered saline (PBS) with "Tween" 20 (polyoxyethylene (20) sorbitan monolaurate, 0.5% v/v), the GST-AsiA fusion protein prepared as described in Example 4.1. above (100 ng) was added together with a defined amount of a putative inhibitor of truncated sigma^70 protein (corallopyronin, myxopyronin or ripostatin) and incubated at 37°C for one hour. Further washing (5 times) with PBS-"Tween" 20 was carried out and then anti-GST antibodies (1:2000) raised in rabbits were added to the wells, with incubation at 37°C for one hour. The previous washing step was repeated and thereafter anti-rabbit IgG-horse radish peroxidase (HRP) conjugate (1:2000) was added and incubated at 37°C for one hour. A final wash with PBS-"Tween" 20 was carried out, before adding the HRP enzyme substrate, tetramethyl benzidene/ H2O2. The enzymic reaction (resulting in the development of colour) was stopped after a suitable period of time by the addition of 6N H2SO4 and the microtitre plate was "read" in a spectrophotometer using light of wavelength (λ) 450 nm.

[2] = target: Salmonella typhimurium RNA polymerase sigma^70 subunit (Salmonella typhimurium) (UniProt P0A2E3); assay: cell-based or functional assay
[3] = target: E. coli RNA polymerase sigma^70 subunit (Escherichia coli) (UniProt P00579); assay: cell-based or functional assay
[4] = target: Truncated sigma^70 (C-terminal 99 amino acids of E. coli sigma^70), (His)5-tagged (Escherichia coli) (UniProt P00579); assay: competitive ELISA; His-tagged truncated sigma^70 on nickel plate, free AsiA 7 µg/ml competing with GST-AsiA 500 ng/ml; the value is the GST-AsiA binding that remains
[5] = target: Truncated sigma^70 (C-terminal 99 amino acids of E. coli sigma^70), (His)5-tagged (Escherichia coli) (UniProt P00579); assay: ELISA; His-tagged truncated sigma^70 on nickel plate, GST-AsiA detected with rabbit anti-GST and anti-rabbit IgG-HRP, OD 450 nm; reference without competitor
[6] = GST-AsiA 500 ng/ml + competitor at 30 µg/ml

T1 sequence (P00579 515-613): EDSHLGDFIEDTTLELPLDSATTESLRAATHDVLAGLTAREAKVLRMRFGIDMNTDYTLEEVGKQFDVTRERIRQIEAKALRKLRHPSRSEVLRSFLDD
Chain of E. coli RNA polymerase sigma^70 subunit (Escherichia coli) (P00579 whole entry, the tested form may be a part): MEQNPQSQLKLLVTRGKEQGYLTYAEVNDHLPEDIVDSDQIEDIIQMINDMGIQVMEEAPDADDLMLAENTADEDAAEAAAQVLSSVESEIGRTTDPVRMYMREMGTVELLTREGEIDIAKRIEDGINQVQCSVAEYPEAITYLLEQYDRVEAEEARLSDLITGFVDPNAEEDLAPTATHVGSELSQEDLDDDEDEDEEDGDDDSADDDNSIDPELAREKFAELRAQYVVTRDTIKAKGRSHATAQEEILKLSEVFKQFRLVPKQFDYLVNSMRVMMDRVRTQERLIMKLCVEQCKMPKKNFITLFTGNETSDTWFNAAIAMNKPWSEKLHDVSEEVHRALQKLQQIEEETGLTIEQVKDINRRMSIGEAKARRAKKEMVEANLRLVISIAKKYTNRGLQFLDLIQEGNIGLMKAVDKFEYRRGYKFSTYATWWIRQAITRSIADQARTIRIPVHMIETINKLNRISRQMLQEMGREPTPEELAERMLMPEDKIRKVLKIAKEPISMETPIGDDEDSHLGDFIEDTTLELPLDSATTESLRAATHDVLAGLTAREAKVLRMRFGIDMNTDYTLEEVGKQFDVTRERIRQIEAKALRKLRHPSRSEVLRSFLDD
Chain of Salmonella typhimurium RNA polymerase sigma^70 subunit (Salmonella typhimurium) (P0A2E3 whole entry): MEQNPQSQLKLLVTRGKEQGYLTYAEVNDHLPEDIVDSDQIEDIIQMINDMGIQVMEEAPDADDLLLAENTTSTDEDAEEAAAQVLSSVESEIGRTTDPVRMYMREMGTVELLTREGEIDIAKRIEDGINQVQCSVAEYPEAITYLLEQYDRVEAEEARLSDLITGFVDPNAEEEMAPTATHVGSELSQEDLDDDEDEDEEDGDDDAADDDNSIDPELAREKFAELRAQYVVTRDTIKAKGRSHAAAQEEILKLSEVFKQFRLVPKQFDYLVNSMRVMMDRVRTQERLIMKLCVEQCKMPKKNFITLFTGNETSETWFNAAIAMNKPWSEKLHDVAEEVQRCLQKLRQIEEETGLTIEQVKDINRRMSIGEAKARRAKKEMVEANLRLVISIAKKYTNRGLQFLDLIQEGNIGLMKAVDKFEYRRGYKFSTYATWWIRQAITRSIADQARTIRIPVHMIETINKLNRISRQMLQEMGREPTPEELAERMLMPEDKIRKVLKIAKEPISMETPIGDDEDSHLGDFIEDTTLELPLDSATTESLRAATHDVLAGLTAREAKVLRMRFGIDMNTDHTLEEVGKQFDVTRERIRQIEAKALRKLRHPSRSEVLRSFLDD
Chain of Truncated sigma^70 (C-terminal 99 amino acids of E. coli sigma^70), (His)5-tagged (Escherichia coli) (P00579 515-613): as the sequence (P00579 515-613) above
Chain of GST-AsiA fusion protein (glutathione-S-transferase fused to the N-terminus of the bacteriophage T4 a (P08515 whole entry, the tested form may be a part): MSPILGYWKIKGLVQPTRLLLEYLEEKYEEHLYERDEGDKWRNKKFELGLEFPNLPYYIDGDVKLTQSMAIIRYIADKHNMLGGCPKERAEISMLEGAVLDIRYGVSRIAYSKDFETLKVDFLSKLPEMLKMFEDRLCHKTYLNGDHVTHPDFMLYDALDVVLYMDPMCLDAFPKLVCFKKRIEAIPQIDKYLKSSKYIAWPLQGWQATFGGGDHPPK

## C/C=C/C/C=C(\C)C(O)CC/C(C)=C/C=C(\C)C(=O)c1c(O)cc([C@H](C)CC/C=C/NC(=O)OC)oc1=O (some centres unmarked) [corallopyronin]
[1]; [6]
  % Binding to truncated sigma^70: 69%

## C/C(=C\Cc1ccccc1)CCC(=O)C[C@H]1C[C@H](O)C/C(C)=C/C/C=C/C/C(CC(=O)O)=C\C(=O)O1 [ripostatin]
[1]; GST-AsiA 500 ng/ml + competitor at 1 µg/ml
  % Binding to truncated sigma^70: 100%
[1]; GST-AsiA 500 ng/ml + competitor at 10 µg/ml
  % Binding to truncated sigma^70: 55%
[1]; GST-AsiA 500 ng/ml + competitor at 100 µg/ml
  % Binding to truncated sigma^70: 1.5%

## AsiA protein (anti-sigma^70 factor of bacteriophage T4, asiA gene product), released from GST-AsiA by Factor Xa
[2]
  [^3H]UTP (nmol) incorporated: E. coli RNA polymerase + 0.1 µg AsiA + 4 µg S. typhimurium sigma^70 (reactivation): 3 nmol
  [^3H]UTP (nmol) incorporated: E. coli RNA polymerase + 0.1 µg AsiA + 4 µg S. typhimurium sigma^70 preincubated with 0.1 µg AsiA: 0.98 nmol
[3]
  [^3H]UTP (nmol) incorporated: E. coli RNA polymerase + 0.1 µg AsiA (control without AsiA 2.1), E. coli sigma^70 series: 0.57 nmol
  [^3H]UTP (nmol) incorporated: E. coli RNA polymerase + 0.1 µg AsiA (control without AsiA 2.3), S. typhimurium sigma^70 series before sigma^70 is added: 0.34 nmol
  [^3H]UTP (nmol) incorporated: E. coli RNA polymerase + 0.1 µg AsiA + 4 µg E. coli sigma^70 (reactivation): 2.3 nmol
  [^3H]UTP (nmol) incorporated: E. coli RNA polymerase + 0.1 µg AsiA + 4 µg E. coli sigma^70 preincubated with 0.1 µg AsiA: 0.68 nmol
  inhibition of E. coli RNA polymerase activity by 0.07 µg AsiA, T4 DNA template: > 80%
[4]
  % Binding to truncated sigma^70: 12%

## GST-AsiA fusion protein (glutathione-S-transferase fused to the N-terminus of the bacteriophage T4 a (from UniProt P08515 1-218)
[5]
  % Binding to truncated sigma^70: 100%

## myxopyronin
[1]; [6]
  % Binding to truncated sigma^70: 56%
